In assay [1] the target is T1, cyno TfR ECD (cynomolgus).
T1 chain: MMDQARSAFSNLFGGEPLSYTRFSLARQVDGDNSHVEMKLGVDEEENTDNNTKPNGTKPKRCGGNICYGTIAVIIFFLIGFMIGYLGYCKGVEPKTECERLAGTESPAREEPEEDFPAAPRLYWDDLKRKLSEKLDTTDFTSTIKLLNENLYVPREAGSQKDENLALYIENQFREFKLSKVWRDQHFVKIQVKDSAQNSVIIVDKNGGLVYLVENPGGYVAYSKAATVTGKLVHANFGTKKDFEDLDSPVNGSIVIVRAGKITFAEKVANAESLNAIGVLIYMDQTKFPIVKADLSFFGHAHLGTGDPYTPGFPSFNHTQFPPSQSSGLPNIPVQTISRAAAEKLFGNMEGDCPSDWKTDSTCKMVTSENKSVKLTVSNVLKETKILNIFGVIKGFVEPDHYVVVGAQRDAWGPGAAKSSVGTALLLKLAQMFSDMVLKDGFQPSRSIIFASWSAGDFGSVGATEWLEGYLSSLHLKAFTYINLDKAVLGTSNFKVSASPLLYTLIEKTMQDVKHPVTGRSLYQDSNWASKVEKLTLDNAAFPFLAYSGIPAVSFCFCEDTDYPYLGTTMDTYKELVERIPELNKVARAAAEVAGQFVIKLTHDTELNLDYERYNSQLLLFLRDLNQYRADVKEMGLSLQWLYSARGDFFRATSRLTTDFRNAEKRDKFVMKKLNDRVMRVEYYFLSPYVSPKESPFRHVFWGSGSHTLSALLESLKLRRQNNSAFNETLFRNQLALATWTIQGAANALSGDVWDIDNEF
The experiment in a line: SPR. A general note: SPR reads the build-up and loss of mass on a sensor chip optically.

Assay [2] deals with human TfR ECD (human). Nature of the assay: SPR.
Sequence of human TfR ECD (human) (chain, as listed by the source): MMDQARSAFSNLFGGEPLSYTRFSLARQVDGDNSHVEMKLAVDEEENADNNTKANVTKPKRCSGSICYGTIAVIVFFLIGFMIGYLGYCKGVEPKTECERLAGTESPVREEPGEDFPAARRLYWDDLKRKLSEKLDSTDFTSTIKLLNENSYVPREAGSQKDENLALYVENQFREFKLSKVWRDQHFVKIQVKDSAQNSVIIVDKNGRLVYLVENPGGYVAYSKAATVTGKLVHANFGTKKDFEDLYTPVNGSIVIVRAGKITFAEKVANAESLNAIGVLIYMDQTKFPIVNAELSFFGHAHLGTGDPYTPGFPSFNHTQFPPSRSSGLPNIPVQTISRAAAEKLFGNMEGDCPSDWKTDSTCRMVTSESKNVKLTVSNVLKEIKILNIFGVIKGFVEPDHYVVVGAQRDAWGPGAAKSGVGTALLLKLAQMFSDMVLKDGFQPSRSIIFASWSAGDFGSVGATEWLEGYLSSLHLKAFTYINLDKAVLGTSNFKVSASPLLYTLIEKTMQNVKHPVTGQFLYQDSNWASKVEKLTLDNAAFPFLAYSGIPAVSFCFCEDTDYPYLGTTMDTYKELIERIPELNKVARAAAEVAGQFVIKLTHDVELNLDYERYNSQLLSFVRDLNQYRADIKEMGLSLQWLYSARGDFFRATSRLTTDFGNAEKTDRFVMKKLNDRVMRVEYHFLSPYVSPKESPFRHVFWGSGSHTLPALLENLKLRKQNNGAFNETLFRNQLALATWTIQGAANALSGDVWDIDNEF
The target in a further assay is T2, cyno FcRn (cynomolgus, UniProt Q8SPV9).
T2 chain 1: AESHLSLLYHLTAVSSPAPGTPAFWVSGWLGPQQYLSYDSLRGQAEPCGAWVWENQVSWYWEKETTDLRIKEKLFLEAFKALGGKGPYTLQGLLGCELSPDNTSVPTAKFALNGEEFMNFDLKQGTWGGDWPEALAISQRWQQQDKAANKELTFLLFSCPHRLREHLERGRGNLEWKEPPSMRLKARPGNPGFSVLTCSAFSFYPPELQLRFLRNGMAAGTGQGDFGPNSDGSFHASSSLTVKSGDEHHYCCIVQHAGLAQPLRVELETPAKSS
T2 chain 2: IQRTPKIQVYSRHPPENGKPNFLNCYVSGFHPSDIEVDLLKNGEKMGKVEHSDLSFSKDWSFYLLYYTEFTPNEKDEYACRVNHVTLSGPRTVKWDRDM
The experiment in a line: SPR, pH 6.0.

In the next assay the target is human FcRn (human, UniProt P55899). The experiment in a line: SPR, pH 6.0.
The target in assay [3] is human TfR ECD (human). Nature of the assay: SPR. This is another data set of the same source.
Assay [4] addresses T1, cyno TfR ECD. The experiment in a line: SPR.

The values that follow come from patent publication US11008403 (dated 2021).

Values joined by “and” are separate entries in the source; they are usually repeats but may differ in a detail not shown here. Identical values can stand only once. Like-named read-outs stand apart in the source and are kept apart here.

As usually defined, the Kd is a measure of binding affinity in units of concentration. Lower therefore signals a tighter complex.

B1: Hu7G7.v1 Fab (antibody, V domains shown)
VH: EVQLVQSGAEVKKPGASVKVSCKASGYTFTSYWMHWVRQAPGQGLEWIGNIYPGSGSTKYDERFKSRVTITVDTSTSTAYLELSSLRSEDTAVYYCTRGGYDSRAWFAYWGQGTLVTVSS
VL: DIVMTQSPDSLAVSLGERATINCRARQSVSTSSYSFMHWYQQPAGQPPKLLIKYASIQESGVPDRFSGSGSGTDFTLTISSLQAEDVAVYYCQHTWEIPFTFGQGTKVEIK
For the molecule B1, the Kd in the assay with cyno TfR ECD [1] came to 188 nM; with human TfR ECD [2], 45.8 nM.

B2: Mu7A4 Fab (antibody, V domains shown)
VH: QVQLQQSGPELVRPGVSVKISCKGSGYTFTDYAMHWVKQSHAKSLEWIGGISTYFGRTNYNQKFKGRATMTVDKSSSTAYMELARLTSEDSALYYCARGLSGNYVMDYWGQGTSVTVSS
VL: DIVLTQSPASLAVSLGQRATISCRASESVDSYGNSFMHWYQQKPGQPPKLLIYRASNLESGIPARFSGSGSRTDFTLTINPVEADDVATYYCQQSNEGPPTFGGGTKLEIK
Consider B2, for which the figures for the Kd in the assay with cyno TfR ECD [1] and with human TfR ECD [2] were 0.741 nM and 0.19 nM, respectively.

B3: Hu7A4.v15 Fab (antibody, V domains shown)
VH: EVQLVQSGAEVKKPGASVKVSCKGSGYTFTDYAMHWVRQAPGQGLEWMGGISTYFGRTNYNQKFKGRVTMTVDTSISTAYMELSRLRSDDTAVYYCARGLSGNYVMDYWGQGTTVTVSS
VL: DIVMTQSPDSLAVSLGERATINCRASESVDSYGNSFMHWYQQKPGQPPKLLIYRASNLESGVPDRFSGSGSRTDFTLTISSLQAEDVAVYYCQQSNEAPPTFGQGTKLEIK
Regarding B3, the figures for the Kd with cyno TfR ECD [1] and with human TfR ECD [2] were 4.28 nM and 0.348 nM, respectively.

B4: Anti-TfR2/6266.hIgG1.LALAPG.YTE (antibody)
chain 1: EVQLVQSGAEVKKPGASVKVSCKASGYTFTSYWMHWVRQAPGQRLEWIGEINPTNGRTNYIEKFKSRATLTVDKSASTAYMELSSLRSEDTAVYYCARGTRAYHYWGQGTMVTVSSASTKGPSVFPLAPSSKSTSGGTAALGCLVKDYFPEPVTVSWNSGALTSGVHTFPAVLQSSGLYSLSSVVTVPSSSLGTQTYICNVNHKPSNTKVDKKVEPKSCDKTHTCPPCPAPEAAGGPSVFLFPPKPKDTLYITREPEVTCVVVDVSHEDPEVKFNWYVDGVEVHNAKTKPREEQYNSTYRVVSVLTVLHQDWLNGKEYKCKVSNKALGAPIEKTISKAKGQPREPQVYTLPPSREEMTKNQVSLSCAVKGFYPSDIAVEWESNGQPENNYKTTPPVLDSDGSFFLVSKLTVDKSRWQQGNVFSCSVMHEALHNHYTQKSLSLSPGK
chain 2: DIQMTQSPSSLSASVGDRVTITCRASDNLYSNLAWYQQKPGKSPKLLVYDATNLADGVPSRFSGSGSGTDYTLTISSLQPEDFATYYCQHFAGTPLTFGQGTKVEIKRTVAAPSVFIFPPSDEQLKSGTASVVCLLNNFYPREAKVQWKVDNALQSGNSQESVTEQDSKDSTYSLSSTLTLSKADYEKHKVYACEVTHQGLSSPVTKSFNRGEC
chain 3: not shown
chain 4: not shown
B4: the values for the equilibrium dissociation constant (Kd) with cyno FcRn and with human FcRn were 200 nM and 300 nM, respectively.

B5: Anti-TfR.52A/6266.hIgG1.LALAPG.YTE (antibody)
chain 1: EVQLVQSGAEVKKPGASVKVSCKASGYTFTSYWMHWVRQAPGQRLEWIGEIAPTNGRTNYIEKFKSRATLTVDKSASTAYMELSSLRSEDTAVYYCARGTRAYHYWGQGTMVTVSSASTKGPSVFPLAPSSKSTSGGTAALGCLVKDYFPEPVTVSWNSGALTSGVHTFPAVLQSSGLYSLSSVVTVPSSSLGTQTYICNVNHKPSNTKVDKKVEPKSCDKTHTCPPCPAPEAAGGPSVFLFPPKPKDTLYITREPEVTCVVVDVSHEDPEVKFNWYVDGVEVHNAKTKPREEQYNSTYRVVSVLTVLHQDWLNGKEYKCKVSNKALGAPIEKTISKAKGQPREPQVYTLPPSREEMTKNQVSLSCAVKGFYPSDIAVEWESNGQPENNYKTTPPVLDSDGSFFLVSKLTVDKSRWQQGNVFSCSVMHEALHNHYTQKSLSLSPGK
chain 2: DIQMTQSPSSLSASVGDRVTITCRASDNLYSNLAWYQQKPGKSPKLLVYDATNLADGVPSRFSGSGSGTDYTLTISSLQPEDFATYYCQHFWGTPLTFGQGTKVEIKRTVAAPSVFIFPPSDEQLKSGTASVVCLLNNFYPREAKVQWKVDNALQSGNSQESVTEQDSKDSTYSLSSTLTLSKADYEKHKVYACEVTHQGLSSPVTKSFNRGEC
chain 3: not shown
chain 4: not shown
For B5, the Kd in the assay with cyno FcRn and in the assay with human FcRn was 200 nM throughout.

B6: Anti-TfR.52A/6266.hIgG1.LALAPG (antibody)
chain 1: EVQLVQSGAEVKKPGASVKVSCKASGYTFTSYWMHWVRQAPGQRLEWIGEIAPTNGRTNYIEKFKSRATLTVDKSASTAYMELSSLRSEDTAVYYCARGTRAYHYWGQGTMVTVSSASTKGPSVFPLAPSSKSTSGGTAALGCLVKDYFPEPVTVSWNSGALTSGVHTFPAVLQSSGLYSLSSVVTVPSSSLGTQTYICNVNHKPSNTKVDKKVEPKSCDKTHTCPPCPAPEAAGGPSVFLFPPKPKDTLMISRTPEVTCVVVDVSHEDPEVKFNWYVDGVEVHNAKTKPREEQYNSTYRVVSVLTVLHQDWLNGKEYKCKVSNKALGAPIEKTISKAKGQPREPQVYTLPPSREEMTKNQVSLSCAVKGFYPSDIAVEWESNGQPENNYKTTPPVLDSDGSFFLVSKLTVDKSRWQQGNVFSCSVMHEALHNHYTQKSLSLSPGK
chain 2: DIQMTQSPSSLSASVGDRVTITCRASDNLYSNLAWYQQKPGKSPKLLVYDATNLADGVPSRFSGSGSGTDYTLTISSLQPEDFATYYCQHFWGTPLTFGQGTKVEIKRTVAAPSVFIFPPSDEQLKSGTASVVCLLNNFYPREAKVQWKVDNALQSGNSQESVTEQDSKDSTYSLSSTLTLSKADYEKHKVYACEVTHQGLSSPVTKSFNRGEC
chain 3: not shown
chain 4: not shown
Regarding B6, the Kd with cyno FcRn came out at 1200 nM; in the assay with human FcRn, 800 nM.

B7: Mu15G11 Fab (antibody, V domains shown)
VH: QVQLQQPGAELVKPGASVKLSCKASGYTFTSYWMHWVKQRPGQGLEWIGEINPTNGRTNYIEKFKSKATLTVDKSSSTAYMQLSSLTSEDSAVYYCARGTRAYHYWGQGTSVTVSS
VL: DIQMTQSPASLSVSVGETVTITCRASDNLYSNLAWYQQKQGKSPQLLVYDATNLADGVPSRFSGSGSGTQYSLKINSLQSEDFGTYYCQHFWGTPLTFGAGTKLELK
With B7, the Kd with cyno TfR ECD [1] is 5.81 nM and 7.57 nM; with human TfR ECD [2] it was 3.37 nM.

B8: Hu15G11.HC34A Fab (antibody, V domains shown)
VH: EVQLVQSGAEVKKPGASVKVSCKASGYTFTSYWAHWVRQAPGQRLEWIGEINPTNGRTNYIEKFKSRATLTVDKSASTAYMELSSLRSEDTAVYYCARGTRAYHYWGQGTMVTVSS
VL: DIQMTQSPSSLSASVGDRVTITCRASDNLYSNLAWYQQKPGKSPKLLVYDATNLADGVPSRFSGSGSGTDYTLTISSLQPEDFATYYCQHFWGTPLTFGQGTKVEIK
With B8, the Kd with human TfR ECD [3] is 7.14 nM; in the assay with cyno TfR ECD [4] it was 32.6 nM.

B9: Hu15G11.HC32A Fab (antibody, V domains shown)
VH: EVQLVQSGAEVKKPGASVKVSCKASGYTFTSAWMHWVRQAPGQRLEWIGEINPTNGRTNYIEKFKSRATLTVDKSASTAYMELSSLRSEDTAVYYCARGTRAYHYWGQGTMVTVSS
VL: DIQMTQSPSSLSASVGDRVTITCRASDNLYSNLAWYQQKPGKSPKLLVYDATNLADGVPSRFSGSGSGTDYTLTISSLQPEDFATYYCQHFWGTPLTFGQGTKVEIK
B9 yielded a Kd with human TfR ECD [3] of 7.47 nM.

B10: Hu15G11.HC53A Fab (antibody, V domains shown)
VH: EVQLVQSGAEVKKPGASVKVSCKASGYTFTSYWMHWVRQAPGQRLEWIGEINPANGRTNYIEKFKSRATLTVDKSASTAYMELSSLRSEDTAVYYCARGTRAYHYWGQGTMVTVSS
VL: DIQMTQSPSSLSASVGDRVTITCRASDNLYSNLAWYQQKPGKSPKLLVYDATNLADGVPSRFSGSGSGTDYTLTISSLQPEDFATYYCQHFWGTPLTFGQGTKVEIK
For B10, the Kd with human TfR ECD [3] was 12.9 nM; with cyno TfR ECD [4], 51.8 nM.

B11: Hu15G11.HC51A Fab (antibody, V domains shown)
VH: EVQLVQSGAEVKKPGASVKVSCKASGYTFTSYWMHWVRQAPGQRLEWIGEANPTNGRTNYIEKFKSRATLTVDKSASTAYMELSSLRSEDTAVYYCARGTRAYHYWGQGTMVTVSS
VL: DIQMTQSPSSLSASVGDRVTITCRASDNLYSNLAWYQQKPGKSPKLLVYDATNLADGVPSRFSGSGSGTDYTLTISSLQPEDFATYYCQHFWGTPLTFGQGTKVEIK
Consider B11, for which the Kd turned out to be 23.9 nM in the assay with human TfR ECD [3] and 105 nM with cyno TfR ECD [4].
